Reference: patent publication US6573045, “Methods and kits for discovery of RNA-binding compounds” (Ribotargets, Ltd.)

How the values were obtained:
Rev peptide [1] = target: T1, Rev peptide (Human immunodeficiency virus 1); assay: FRET quenching; TAMRA-Rev and DABCYL-TAR; 50 mM Tris pH 8, 50 mM KCl, room temp; details: protein: synthetic; tags: chemically synthesised peptide; N-terminal TAMRA; label: 3'-DABCYL or 5'-Cy3; hairpin with bulge
Rev peptide [2] = target: T1, Rev peptide; assay: FRET quenching; ±23; TAMRA-Rev and DABCYL-RRE; 50 mM Tris pH 8, 50 mM KCl, room temp; details: protein: synthetic; tags: chemically synthesised peptide; N-terminal TAMRA; label: 3'-DABCYL or 5'-FAM; hairpin

Row | Binder | Kd (Rev peptide [1]) | Kd (Rev peptide [2])
1 | CCCAGAUCUGAGCCUGGGAGCUCUCUGGG (ssRNA) [TAR RNA 29-mer] | 11 µM | 
2 | CGUGUGGGCGCAGCGUCAAUGACGCUGCGGUACACACG (ssRNA) [RRE RNA] |  | 0.137 µM
